Reference: US20240376222A1 (University of Texas, published 2024)
Where two headings read alike, the source gives them in different places.

Assays:
[1] = biological target: T1, muTfR extracellular domain (ECD), His-tagged (mouse, UniProt Q62351 89-763); test: BLI (Octet), IgG on Protein A sensor, muTfR-ECD-His in solution, 1:1 global fit
T1 construct: extracellular domain; Bought protein (Sino Biological); also called muTfR-His; muTfR ECD
Description: FIG. 3. Illustrates the Kinetics and binding affinities of murine transferrin receptor (TfR) antibodies and represents the kinetic binding graphs determined using BLI method with Octet 96-Red instrument. Protein A sensors (Fortebio) were used to capture anti-TfR IgG. Individual purified TfR antibodies were loaded onto Protein A sensors and subject to a solution flow containing muTfR-ECD-His at designated concentrations: (indicated by the colored lines under each graphs) and for a defined time (shown in X-axis). After binding, the sensors were incubated in blank kinetics buffer to allow free dissociation of TfR for designated time.
FIG. 4: Illustrates the binding kinetics parameters were calculated by the software from Fortebio (version 11) using 1:1 binding model with global fitting. KD is calculated by kdis/kon as determined from the FIG. 3 data.

[2] = biological target: T2, human TfR extracellular domain (ECD) (human, UniProt P02786 89-760); test: phage ELISA, scFv phage on coated TfR, anti-M13-HRP, single point
T2 construct: extracellular domain; Bought protein; also called HuTfR; huTfR

[3] = biological target: T3, cynomolgus TfR extracellular domain (ECD) (cynomolgus); test: Octet BLI, serial dilution of antigen
T3 chain: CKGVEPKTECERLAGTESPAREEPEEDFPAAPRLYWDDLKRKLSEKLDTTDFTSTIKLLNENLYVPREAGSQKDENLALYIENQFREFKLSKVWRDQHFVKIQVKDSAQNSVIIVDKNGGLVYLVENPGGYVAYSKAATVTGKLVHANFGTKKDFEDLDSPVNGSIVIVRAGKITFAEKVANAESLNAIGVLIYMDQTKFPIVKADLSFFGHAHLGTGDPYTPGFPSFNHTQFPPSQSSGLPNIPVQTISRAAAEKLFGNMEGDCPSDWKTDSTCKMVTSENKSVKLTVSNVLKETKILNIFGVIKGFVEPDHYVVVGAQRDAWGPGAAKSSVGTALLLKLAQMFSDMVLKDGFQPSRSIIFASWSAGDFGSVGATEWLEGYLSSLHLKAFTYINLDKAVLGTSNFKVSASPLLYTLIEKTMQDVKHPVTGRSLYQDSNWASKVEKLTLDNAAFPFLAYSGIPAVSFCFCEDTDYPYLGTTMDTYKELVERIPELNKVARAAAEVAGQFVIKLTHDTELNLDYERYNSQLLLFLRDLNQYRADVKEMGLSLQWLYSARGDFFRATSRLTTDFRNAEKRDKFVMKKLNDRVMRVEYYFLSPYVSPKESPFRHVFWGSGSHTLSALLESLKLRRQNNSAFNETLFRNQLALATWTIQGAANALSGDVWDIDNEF

[4] = biological target: T2, human TfR extracellular domain (ECD); test: Octet BLI, serial dilution of antigen
[5] = biological target: T2, human TfR extracellular domain (ECD); test: BLI (Octet), IgG on Protein A sensor, huTfR-ECD-His in solution, 1:1 global fit
Protocol: FIG. 1. Illustrates the Kinetics and binding affinities of human transferrin receptor (TfR) antibodies and represents the kinetic binding graphs determined using BLI method with Octet 96-Red instrument. Protein A sensors (Fortebio) were used to capture anti-TfR IgG. During all incubation steps, sample temperature was set to room temperature with 1000 rpm shaking. Individual purified TfR antibodies were loaded onto sensors. After antibody capture, the antibody-loaded sensors were subject to a solution flow containing huTfR-ECD-His at designated concentrations: (indicated by the colored lines under each graphs) and for a defined time (shown in X-axis). After binding, the sensors were incubated in blank kinetics buffer to allow free dissociation of TfR for designated time. The binding kinetics parameters were calculated by the software from Fortebio (version 11) using 1:1 binding model with global fitting.

[6] = biological target: T2, human TfR extracellular domain (ECD); test: phage ELISA, scFv phage on coated TfR, anti-M13-HRP, single point; remark: listed apart in the source

T1 sequence (Q62351 89-763): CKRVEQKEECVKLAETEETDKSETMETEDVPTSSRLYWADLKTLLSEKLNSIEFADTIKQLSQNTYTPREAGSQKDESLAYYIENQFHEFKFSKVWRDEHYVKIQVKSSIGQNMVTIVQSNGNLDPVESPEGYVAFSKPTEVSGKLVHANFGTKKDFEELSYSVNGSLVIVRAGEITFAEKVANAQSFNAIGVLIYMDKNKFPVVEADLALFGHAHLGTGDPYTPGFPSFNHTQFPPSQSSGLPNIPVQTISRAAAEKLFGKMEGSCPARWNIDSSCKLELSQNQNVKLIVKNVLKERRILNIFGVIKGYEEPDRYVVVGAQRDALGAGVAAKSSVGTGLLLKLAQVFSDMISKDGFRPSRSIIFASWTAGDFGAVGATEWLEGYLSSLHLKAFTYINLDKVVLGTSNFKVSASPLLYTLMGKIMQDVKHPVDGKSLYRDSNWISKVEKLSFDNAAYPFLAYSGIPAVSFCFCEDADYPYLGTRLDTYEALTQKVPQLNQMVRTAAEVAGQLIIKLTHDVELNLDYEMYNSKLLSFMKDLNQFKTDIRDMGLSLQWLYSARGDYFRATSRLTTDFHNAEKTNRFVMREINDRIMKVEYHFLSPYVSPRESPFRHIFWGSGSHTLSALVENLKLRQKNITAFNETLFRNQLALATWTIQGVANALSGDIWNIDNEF

B1: Ab5 (antibody, V domains shown)
VH: QVQLVESGGGLVQPGRSLRLSCAASGFTFDDYAMHWVRQAPGKGLEWVSGISWNSGSIGYADSVKGRFTISRDNAKNSLYLQMNSLRAEDTALYYCAKVSSQSGSVAGFDYWGQGTLVSVSS
VL: QPVLTQPPSASGTPGQRVTISCSGSSSNIGANYVYWYQQLPGTAPKLLIYRNNQRPSGVPDRFSGSKSGTSASLAIGGLRSEDEADYYCAGWDDSLSGVLFGGGTKVTVL
- Kd [1]: 2.58 nM
- koff [1]: 0.000135 s⁻¹
- kon [1]: 52300 M⁻¹ s⁻¹

B2: Ab2 (antibody, V domains shown)
VH: QVQLVQSGAEVKKPGSSVKVSCKASGGTFSSYAISWVRQAPGQGLEWMGGIIPIFGTANYAQKFQGRVTITADESTSTAYMELSSLRSEDTAVYYCARFAFFSLASEDYWGQGTLVIVSS
VL: not shown
- Kd [1]: 8.37 nM
- koff [1]: 0.000145 s⁻¹
- kon [1]: 17300 M⁻¹ s⁻¹

B3: 8A5 (antibody, V domains shown)
VH: QVQLVQSGAEVKKPGESLRISCKGSGYSFTSYWISWVRQMPGKGLEWMGRIDPSDSYTNYSPSFQGHVTISADKSISTAYLQWSSLKASDTAIYYCARARTWFDAFDIWGQGTTVTVSS
VL: QAVVTQPPSASGTPGQRVTISCSGGSSNIGRYSVNWYQQLPGTAPKLLINSNIQRPSGVPDRFSGSKSGTSASLAISGLQSEDEADYHCAAWDDSLKGWVFGGGTKVTVL
notes: Human IgG1, converted from a phage scFv clone
- binding result [2]: binds

B4: 5B6 (antibody, V domains shown)
VH: PVLLVQSGAEVKKPGSSVKVSCKASGGTFSSYAISWVRQAPGQGLEWMGGIIPIFGTANYAQKFQGRVTITADESTSTAYMELSSLRSEDTAVYYCAVSIFGVVIPLDYWGQGTLVIVSS
VL: QPVLTQSPSVSLAPGQTAKITCGGTNIGRKSVHWYQQKPGQAPVMVIYYDSDRPSGIPERFAGSNSGNTATLTISRVEAGDEAVYYCQVWDSSSASGVFGGGTKVTVL
notes: as for B3
- Kd [3]: < 0.001 nM
- koff [3]: < 1e-07 s⁻¹
- kon [3]: 87900 M⁻¹ s⁻¹
- Kd [4]: 0.575 nM
- koff [4]: 2.98e-05 s⁻¹
- kon [4]: 51800 M⁻¹ s⁻¹

B5: 7B10 (antibody, V domains shown)
VH: QVQLVQSGAEVKKPGASVKVSCKASGYTFTSYGISWVRQAPGQGLEWMGWISAYNGNTNYAQKLQGRVTMTTDTSTSTAYMELRSLRSDDTAVYYCARDQKLLHILYYYGMDVWGQGTTVIVSS
VL: DIVMTQSPLSLSVTPGEPASISCRSSQSLLHSNGNNYLDWYLQKPGQSPQLLIYLGSNRASGVPDRFSGSGSGTDFSLKINKVEAEDVGVYYCMQALQTAYTFGQGTKLEIK
notes: as for B3
- binding result [2]: binds

B6: Ab30 (antibody, V domains shown)
VH: EVQLVQSGGGLAQPGGSLRLSCAASGFTFSIYSMNWVRQAPGKGLEWVSYIGGGGTSIYYADSVKGRFTISRDNAKNSLSLQMNSLRAEDTGVYYCARGKPATGFDYWGQGTLVSVSS
VL: QSVLTQPRSVSGSPGQSVTISCTGTSSDVGGYNYVSWYQQHPGKAPKLMISEVSKRPSGVPDRFSGSKSGNTASLTVSGLQAEDEADYYCSSYAGGYTPYVFGTGTKVTVL
- Kd [5]: < 0.001 nM
- koff [5]: < 1e-07 s⁻¹
- kon [5]: 119000 M⁻¹ s⁻¹

B7: 7A1 (antibody, V domains shown)
VH: QVQLVQSGAEVKKPGSSVKVSCKASGGTFSSYAISWVRQAPGQGLEWMGGIIPIFGTANYAQKFQGRVTITADESTSTAYMELSSLRSEDTAVYYCARSGYYNDAFDIWGQGTMVTVSS
VL: QSALTQPASVSGSPGQSITISCTGTNSDIGGYNYVSWYQQHPGKAPKLMIYEVSNRPSGVSNRFSGSKSGNTASLTISGLQAEDEAHYYCSSYTSSSTLVFGGGTKVTVL
notes: as for B3
- binding result [2]: binds

B8: 1C8 (antibody, V domains shown)
VH: QVQLVQSGAEVKKPGSSMKVSCKASGGTFSSYAISWVRQAPGQGLEWMGGIIPIFGTAKYAQKFQGRVTITADESTTTAYMELSSLSSEDTAVYYCARSLGWYYAFDIWGQGTMVTVSS
VL: DIVMTQSPSTLSASVGDRVTITCRASQNINNWLAWYQQKPGKAPKLLIYKASTAESGVPSRFSGSGFGTEFTLTISSLQPDDFASYYCQQYKNYPYSNLYTFGQGTKVDIK
notes: as for B3
- binding result [6]: binds

B9: Ab42 (antibody, V domains shown)
VH: QVQLVQSGAEVKKPGSSVKVSCKASGGTFSSYAISWVRQAPGQGLEWMGGIIPIFGTANYAQKFQGRVTITADESTSTAYMELSSLRSEDTAVYYCARGATRGMDVWGQGTLVTVSS
VL: DIVMTQSPSSLSASVGDRVTITCRASQSISNFLNWYQQKPGKAPKLLIYAASSLQSGVPSRFSGSRSGTDFTLTISSLQPEDFATYYCQQSSSIPLTFGGGTKLEIK
- Kd [1]: 2.09 nM
- koff [1]: 0.00013 s⁻¹
- kon [1]: 62000 M⁻¹ s⁻¹

B10: Ab59 (antibody, V domains shown)
VH: QVQLVESGGGVVQPGRSLRLSCAASGFTFSSYAMHWVRQAPGKGLEWVAVISYDGSNKYYADSVKGRFTISRDNSKNTLYLQMNSLRAEDTAVYYCARGGPYYDFWSDGMDVWGQGTMVTVSS
VL: QSVLTQPHSVSESPGKTVTISCTRSSGSIASNYVQWYQQRPGSSPTTVIYEDNQRPSGVPDRFSGSIDSSSNSASLTISGLKTEDEADYYCQSYDSSNYVFGTGTKVTVL
- Kd [1]: 2.17 nM
- koff [1]: 0.000162 s⁻¹
- kon [1]: 74900 M⁻¹ s⁻¹

B11: 8G5 (antibody, V domains shown)
VH: QVQLVQSGAEVKKPGASVKVSCKASGYTFTSYGISWVRQAPGQGLEWMGWISAYNGNTNYAQKLQGRVTMTTDTSTSTAYMELRSLRSDDTAVYYCARVGYYYYGMDVWGQGTTVTVSS
VL: QSVLTQPPSVSGAPGQRVTISCTGSSSNIGAGFDVHWYQQLPGTAPKLLIYANSNRPSGVPDRFSASKSGTSASLAITGLQAEDEADYYCQSYDRSLSGYVFGSGTKVTVL
notes: as for B3
- binding result [2]: binds

B12: muTfR Ab4 (antibody, V domains shown)
VH: EVQLVESGGGLVKPGGSLRLSCAASGFTFSWYTMNWVRQAPGKGLEWVSSISSSSSDMYYADSVKGRFTISRDNAKNSLYLQIDSLRAEDTAVYYCARAHYYDSTSLNHFYGMDVWGQGTTVTVSS
VL: QSVLTQPPSVSVAPGKTARITCGGNNIGSRTVHWYQQRPGQAPMLVVSDDNDRPSGIPERFSGSNSGNTATLTITRVEAGDEADYYCQVWDSSSDHLVFGGGTQLTVL
modifications: Biotinylated when used as the probe in the competition ELISA; the sites are not stated and the letters do not carry them.
notes: also called anti-muTfR Ab4; biotinylated Ab4
- Kd [1]: 5.03 nM
- koff [1]: 0.000391 s⁻¹
- kon [1]: 77700 M⁻¹ s⁻¹

B13: Ab1 (antibody, V domains shown)
VH: QVQLMQSGAEVKKPGSSVKVSCKASGGTFSSYAISWVRQAPGQGLEWMGRIIPILGIANYAQKFQGRVTITADKSTSTAYMELSSLRSEDTAVYYCARDRDTMVRGGMDVWGQGTMVTVSS
VL: QSALNQPPSASGSPGQSVTISCTGTGSDIGGHNYVSWYQQHPGKAPKLMIYDVSKRPSRVPDRFSGSKSGNTASLTVSGLQAEDEADYYCSSYAGSNVVFGAGTKVTVL
- Kd [5]: 3.46 nM
- koff [5]: 0.000398 s⁻¹
- kon [5]: 115000 M⁻¹ s⁻¹

B14: 4G1 (antibody, V domains shown)
VH: EVQLLESGGGLIQPGGSLRLSCAASGFSVSSYYMNWVRQAPGKGLEWVSNTYTDGSTSYADSVGGRFSVSRDNSKNTLHLQMNSLRVEDTAVYYCAREGDGYNSGGLDYWGQGTLVTVSS
VL: DIQLTQSPASLSASLGDRVTITCRASQSIGTYLNWYQQRPGQAPKLLIFGTSSLQSGVPSRFSGSGSGTDFTLTISSLQPEDLATYYCQQTYITPRTFGQGTKVEIK
notes: as for B3
- Kd [3]: < 0.001 nM
- koff [3]: < 1e-07 s⁻¹
- kon [3]: 94500 M⁻¹ s⁻¹
- Kd [4]: < 0.001 nM
- koff [4]: < 1e-07 s⁻¹
- kon [4]: 79900 M⁻¹ s⁻¹

B15: 1B2 (antibody, V domains shown)
VH: QVQLVQSGAEVKKPGESLRISCKGSGYSFTSYWISWVRQMPGKGLEWMGRIDPSDSYTNYSPSFQGHVTISADKSISTAYLQWSSLKASDTAMYYCARHPLAYCGGDCQRGFDYWGQGTLVTVSS
VL: QPVLTQPPSVSVSPGQTARITCSGDKLREDLTSWYQQKPGQSPVLVIYQDSKRPSGIPARFSGSISGSTATLTISGTQAVDEADYYCQAWDNSVDYVFGTGTKVTVL
notes: as for B3
- binding result [6]: binds
